Patent publication US20240336683A1 (published 2024)
Blank lines part the entries; values can stand above or below the binder they belong to.

Columns and labels:
[1] = target: T1, human Siglec15-Fc fusion protein (human, UniProt Q6ZMC9 20-263); test: SPR Biacore T200; Siglec15-Fc captured on Protein A chip, scFv as analyte
T1 construct: Bought protein (Acro #SG5-H5253 is named for the selection); also called recombinant Siglec 15-Fc fusion protein (Acro #SG5-H5253); human Siglec15-Fc protein; not shown: Fc part of the bought fusion protein
T1 sequence (looked up): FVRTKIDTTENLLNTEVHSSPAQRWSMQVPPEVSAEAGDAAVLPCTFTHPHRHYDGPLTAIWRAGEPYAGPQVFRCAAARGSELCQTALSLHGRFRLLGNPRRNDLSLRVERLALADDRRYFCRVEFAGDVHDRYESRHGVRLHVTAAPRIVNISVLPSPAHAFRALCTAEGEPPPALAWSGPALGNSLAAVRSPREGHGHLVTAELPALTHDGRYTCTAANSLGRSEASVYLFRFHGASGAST
Protocol: Kinetic analysis of anti-Siglec15 scFvs were assessed by SPR technology with Biacore T200. The assay was run with Biacore T200 control software version 2.0. Protein A sensor chip was used to capture Fc fusion protein in the assay. For each cycle, 1 ug/mL of human Siglec15-Fc protein was captured for 60 seconds at flow rate of 10 ul/min on flow cell 2 in 1× HBSP buffer on Protein A sensor chip. 2-fold serial diluted HIS tag purified anti-Siglec15 scFv was injected onto both reference flow cell 1 and Siglec 15-Fc captured flow cell 2 for 150 seconds at flow rate of 30 ul/min followed by wash for 300 seconds. The flow cells were then regenerated with Glycine pH 2 buffer (GE) for 30 seconds at flow rate of 30 ul/mins. 8 concentration points from 300-0 nM was assayed per anti-Siglec15 scFv in a 96 well plate. The kinetics of scFvs binding to Siglec 15 protein was analyzed with Biacore T200 evaluation software version 3.0. The specific binding response unit was derived from subtraction of binding to reference flow cell 1 from Siglec15 captured flow cell 2.

[2] = target: T1, human Siglec15-Fc fusion protein; test: ELISA; Siglec15-Fc captured by anti-hFc, scFv titrated, anti-Flag HRP
Protocol: An ELISA assay was developed to determine the EC50 of anti-Siglec15 antibodies. Briefly, a 384 well plate was immobilized with anti-human Fc antibody at final concentration of 2 ug/mL in 1×PBS in total volume of 25 uL per well. The plate was incubated overnight at 4° C. followed by blocking with 80 uL of superblock per well for 1 hour. Human Siglec 15-Fc was captured through immobilized anti-hFc antibody. Purified anti-Siglec 15 scFvs were 2-fold serial titrated from 200 nM. 25 uL was added to human Siglec15 immobilized wells and incubated for 1 hour with shaking. The Siglec15 binding was detected by adding 25 uL of anti-Flag HRP diluted at 1:5000 in 1×PBST. In between each step, the plate was washed 3 times with 1×PBST in a plate washer. The plate was then developed with 20 uL of TMB substrate for 5 mins and stopped by adding 20 uL of 2 N sulfuric acid. The plate was read at OD450 nm Biotek plate reader and then plotted in Prism 8.1 software.

[3] = target: T2, full-length human Siglec15 with C-terminal flag and Myc tags on HEK293 cells (human, UniProt Q6ZMC9 20-328); test: FACS on Siglec15/HEK293 cells, scFv, anti-His detection
T2 construct: whole, on cells; also called Siglec15/HEK293; HEK293-Siglec 15; not shown: C-terminal flag and Myc tags from pCMV6-Entry vector
T2 sequence (looked up): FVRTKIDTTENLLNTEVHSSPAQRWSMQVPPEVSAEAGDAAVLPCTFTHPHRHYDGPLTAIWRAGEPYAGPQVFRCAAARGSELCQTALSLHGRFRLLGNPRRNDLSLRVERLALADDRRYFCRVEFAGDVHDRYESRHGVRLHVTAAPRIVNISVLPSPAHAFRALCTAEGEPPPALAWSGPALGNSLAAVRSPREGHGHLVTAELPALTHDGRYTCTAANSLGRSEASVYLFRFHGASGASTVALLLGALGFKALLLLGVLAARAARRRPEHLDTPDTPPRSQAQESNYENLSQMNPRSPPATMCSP
Protocol: […] Cells were spun down at 1200 rpm for 5 minutes at 4° C. to remove primary antibodies. Cells were then washed once with 200 uL of full medium per well. Samples were detected with premixed anti-His Biotin Streptavidin Alexa fluor 647 by adding 100 uL of diluted secondary antibody and incubated at 4° C. for 30 minutes in the dark. Samples were spun down at 1200 rpm for 5 minutes at 4° C. and washed twice with 200 uL of 1×PBS per well. Samples were then reconstituted in 200 uL of 1×PBS and read on Attune NxT cytometer. Analysis was performed using Attune NxT software plotting the overlaying the histogram of anti-Siglec15 scFvs binding onto both negative and target cell lines.

[4] = target: T3, human Siglec 15-HIS tagged recombinant protein (human, UniProt Q6ZMC9 20-263); test: SPR Biacore T200; IgG captured on Protein A chip, Siglec15-HIS as analyte
T3 construct: Recombinant soluble protein; also called rhSiglec15 His; human Siglec15-HIS tagged protein; not shown: HIS tag
T3 sequence (looked up): T1 sequence (looked up)
Protocol: Kinetic analysis of anti-Siglec15 IgG was assessed by SPR technology with Biacore T200. The assay was run with Biacore T200 control software version 2.0. For each cycle, 1 ug/mL of anti-Siglec15 IgG was captured for 60 seconds at flow rate of 10 ul/min on flow cell 2 in 1× HBSP buffer on Protein A sensor chip. 2-fold serial human Siglec15-HIS tagged protein was injected onto both reference flow cell 1 and anti-Siglec15 IgG captured flow cell 2 for 150 seconds at flow rate of 30 ul/mins followed by wash for 300 seconds. The flow cells were then regenerated with Glycine pH2 for 60 seconds at flow rate of 30 ul/mins. 8 concentration points from 100-0 nM were assayed per anti-Siglec15 IgG in a 96 well plate. The kinetics of Anti-Siglec15 IgG binding to Siglec 15 protein was analyzed with Biacore T200 evaluation software version 3.0. The specific binding response unit was derived from subtraction of binding to reference flow cell 1 from antibody captured flow cell 2.

[5] = target: T3, human Siglec 15-HIS tagged recombinant …; test: ELISA; His-tagged Siglec15 coated, IgG titrated, anti-hFc HRP
Protocol: (§1) An ELISA assay was developed to determine the EC50 of anti-Siglec15 IgG antibodies. Briefly, a 384 well plate was immobilized with human Siglec 15-HIS tagged recombinant protein at a final concentration of 2 ug/mL in 1×PBS in total volume of 25 uL per well. The plate was incubated overnight at 4° C. followed by blocking with 80 uL of superblock per well for 1 hour. Titration of purified anti-Siglec15 IgG was performed, starting at 200 nM 2-fold serial dilution, then 25 uL was added to the human Siglec15 immobilized wells and incubated for 1 hour with shaking. The Siglec15 binding was detected by adding 25 uL of anti-hFc HRP diluted at 1:5000 in 1×PBST. In between each step, the plate was washed 3 times with 1×PBST in a plate washer. The plate was then developed with 20 ul of TMB substrate for 5 mins and stopped by adding 20 ul of 2N sulfuric acid. The plate was read at OD450 nm Biotek plate reader and then plotted in Prism 8.1 software. Similar binding experiments were done for mouse Siglec15 and cyno Siglec15 to check the cross activity of the IgG antibodies to those two species.

rmouseSiglec15 His = target: T4, rmouseSiglec15 His (mouse, UniProt A7E1W8 20-262); test: as above
T4 sequence: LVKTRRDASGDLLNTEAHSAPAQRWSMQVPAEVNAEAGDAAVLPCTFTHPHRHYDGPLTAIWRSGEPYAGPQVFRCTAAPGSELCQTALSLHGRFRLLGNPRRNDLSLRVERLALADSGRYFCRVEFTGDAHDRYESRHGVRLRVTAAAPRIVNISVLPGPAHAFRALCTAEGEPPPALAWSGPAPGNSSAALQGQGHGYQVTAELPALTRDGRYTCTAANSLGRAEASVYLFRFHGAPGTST
Protocol: as §1

rcynoSiglec15 His = target: T5, rcynoSiglec15 His (cyno, UniProt A0A2K5UY47 20-262); test: as above
T5 construct: not shown: His tag
T5 sequence: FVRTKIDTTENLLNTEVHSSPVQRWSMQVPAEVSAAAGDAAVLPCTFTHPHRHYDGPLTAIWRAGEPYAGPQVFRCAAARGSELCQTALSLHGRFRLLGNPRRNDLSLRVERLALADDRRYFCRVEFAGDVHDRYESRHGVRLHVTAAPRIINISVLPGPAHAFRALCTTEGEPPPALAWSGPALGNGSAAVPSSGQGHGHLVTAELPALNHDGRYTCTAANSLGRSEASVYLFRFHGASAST
Protocol: as §1

[6] = target: T2, full-length human Siglec15 with …; test: FACS on Siglec15/HEK293 cells, IgG, anti-hFc Alexa fluor 647

B1: 2019EP47-A10 scFv (scFv, V domains shown)
VH: QMQLVQSGGGVVQPGRSLRLSCAASGFTFSSYGMHWVRQAPGKGLEWVAVISYDGSNKYYADSVKDRFTISRDNSKNTLYLQMNSLRAEDTAVYYCAKDIVGDSGSYPIYYYYGMDVWGQGTTVTVSS
VL: SQSALTQPHSVSESPGKTVTISCTRSSGSIASNYVQWYQQRPGSAPSTVIYEDNQRPSGVPDRFSGSVDISSNSASLTISGLQTEDEADYYCQSYDNDNMVFGGGTKLTVL
notes: Tested as a single-chain scFv made in E. coli with a C-terminal flag and 6x His tag
Kd [1]: 3.32 nM | koff [1]: 6.02e-05 s⁻¹ | kon [1]: 18200 M⁻¹ s⁻¹ | EC50 [2]: 2.5 nM | EC50 [3]: 112 nM

B2: 2019EP47-A10 IgG (antibody, V domains shown)
VH: B1 VH
VL: B1 VL
notes: IgG form expressed in ExpiHEK293-F cells; detected with anti-hFc
Kd [4]: 3.8 nM | koff [4]: 0.000368 s⁻¹ | EC50 [5]: 0.119 nM | EC50 (rmouseSiglec15 His): 0.109 nM | EC50 (rcynoSiglec15 His): 0.171 nM

B3: 2020EP032-C09 scFv (scFv, V domains shown)
VH: QVQLVESGGGLVKPGGSLRLSCAASGFSFNNAWMSWVRQAPGKGLEWVGRIKSKTDDATTEYAAPVEGRFTISRDDSKNMLYLQMDSLKTEDTAVYYCTTDLRWEELPMYWGQGTLVTVSS
VL: VIWMTQSPSSLSASVGDRVTITCRASQGIRNDLGWYQQKPGKAPKVLIYAASSLQSGVPSRFSGSGSGTDFTLTISSLQPEDFATYYCLQDYNYPQTFGQGTKVGIKR
notes: as for B1
Kd [1]: 25.1 nM | koff [1]: 0.00169 s⁻¹ | kon [1]: 67600 M⁻¹ s⁻¹ | EC50 [2]: 6.07 nM | EC50 [3]: 0.65 nM

B5: 2019EP47-A02 IgG (antibody, V domains shown)
VH: EVQLVQSGGGVVQPGRSLRLSCAASGFTFSSYAMHWVRQAPGKGLEWVAVISYDGSNKYYADSVKGRFTISRDNSKNTLYLQMNSLRAEDTAVYYCARSRYSSSLRRYYGMDVWGQGTTVTVSS
VL: AIQLTQSPSSLSASVGDRVTITCQATHDIANYLNWYQQKPGKAPKLLIYAASNLETGVPSRFSGSGSGTDFTFAISSLQPEDIAVYYCQQYDNLPLTFGGGTKVEIK
notes: as for B2
Kd [4]: 2.4 nM | koff [4]: 0.000311 s⁻¹ | EC50 [6]: 0.35 nM | EC50 [5]: 0.0289 nM

Continued by falling Kd [1], values first:

Kd [1]: 2.26 nM | koff [1]: 0.000294 s⁻¹ | kon [1]: 130000 M⁻¹ s⁻¹ | EC50 [2]: 0.544 nM | EC50 [3]: 0.86 nM
B6: 2020EP032-A12 scFv (scFv, V domains shown)
VH: QMQLVQSGGGVVQPGRSLRLSCAASGFTFSSYGMHWVRQAPGKGLEWVAVISDDGSNKYYADSVKGRFTISRDNSKNTLYLQMNSLRAEDTAVYYCAKKDVATILFDNWGQGTLVTVSS
VL: VIWMTQSPSTLSASVGDRVTITCRASQSITRWLAWYQQKPGKAPKLLIYKTSDLDGGVPSRFSGSESGAEFTLTISSLQPDDVATYFCQHYNTRSWTFGQGTKVELK
notes: as for B1

Kd [1]: 2.11 nM | koff [1]: 0.000282 s⁻¹ | kon [1]: 134000 M⁻¹ s⁻¹ | EC50 [2]: 1.78 nM | EC50 [3]: 1.22 nM
B4: 2020EP032-B03 scFv (scFv, V domains shown)
VH: QVQLQQWGAGLLKPSETLSLTCAVYGGSFSGYYWSWIRQPPGKGLEWIGEINHSGSTNYNPSLKSRVTISVDTSKNQFSLKLSSVTAADTAVYYCARGPLRKYYDFWSGSRNYYYYGMDVWGQGTTVTVSS
VL: QPVLTQDPAVSVALGQTVRITCQGDSLRSNYASWYQLKPGQAPVLVIYDKNNRPSGIPDRFSGSNSGNTASLTIAGAQAEDEADYYCTSRDSSGTVFGGGTKLTVL
notes: as for B1

Kd [1]: 0.557 nM | koff [1]: 0.000316 s⁻¹ | kon [1]: 567000 M⁻¹ s⁻¹ | EC50 [2]: 0.567 nM | EC50 [3]: 10.6 nM
B7: 2020EP032-H11 scFv (scFv, V domains shown)
VH: EVQLVESGGGLVKPGGSLRLSCAASGFTFSSYSMNWVRQAPGKGLEWVSSISSSSSYIYYADSVKGRFTISRDNAKNSLYLQMNSLRAEDTAVYYCARDYRGYSGQNYYGMDVWGQGTTVTVSS
VL: QSALTQPPSVSAAPRQKVTISCSGSSSNIGNNDVSWYQQLPGTVPKLLIYDNNKRPSGIPDRFSGSKSGTSASLGITGLQTGDEADYYCGVWDSSLSGYVFGTGTKVTVL
notes: as for B1
